According to patent publication US20240117038A1 (Ablynx, published 2024):
One block for each binder: values may come before it.

What was measured:
[1] = target: T1, DCC (human, UniProt P43146); experiment: membrane protein array validation: flow cytometry on unfixed cells expressing the protein, serial dilutions in buffer with 10% human serum albumin, fluorescently labeled secondary antibody that binds ISVDs
T1 construct: overexpressed on live cells from an expression plasmid; Tested in the validation titration of the membrane protein array
T1 sequence (P43146 26-1447 limits assumed): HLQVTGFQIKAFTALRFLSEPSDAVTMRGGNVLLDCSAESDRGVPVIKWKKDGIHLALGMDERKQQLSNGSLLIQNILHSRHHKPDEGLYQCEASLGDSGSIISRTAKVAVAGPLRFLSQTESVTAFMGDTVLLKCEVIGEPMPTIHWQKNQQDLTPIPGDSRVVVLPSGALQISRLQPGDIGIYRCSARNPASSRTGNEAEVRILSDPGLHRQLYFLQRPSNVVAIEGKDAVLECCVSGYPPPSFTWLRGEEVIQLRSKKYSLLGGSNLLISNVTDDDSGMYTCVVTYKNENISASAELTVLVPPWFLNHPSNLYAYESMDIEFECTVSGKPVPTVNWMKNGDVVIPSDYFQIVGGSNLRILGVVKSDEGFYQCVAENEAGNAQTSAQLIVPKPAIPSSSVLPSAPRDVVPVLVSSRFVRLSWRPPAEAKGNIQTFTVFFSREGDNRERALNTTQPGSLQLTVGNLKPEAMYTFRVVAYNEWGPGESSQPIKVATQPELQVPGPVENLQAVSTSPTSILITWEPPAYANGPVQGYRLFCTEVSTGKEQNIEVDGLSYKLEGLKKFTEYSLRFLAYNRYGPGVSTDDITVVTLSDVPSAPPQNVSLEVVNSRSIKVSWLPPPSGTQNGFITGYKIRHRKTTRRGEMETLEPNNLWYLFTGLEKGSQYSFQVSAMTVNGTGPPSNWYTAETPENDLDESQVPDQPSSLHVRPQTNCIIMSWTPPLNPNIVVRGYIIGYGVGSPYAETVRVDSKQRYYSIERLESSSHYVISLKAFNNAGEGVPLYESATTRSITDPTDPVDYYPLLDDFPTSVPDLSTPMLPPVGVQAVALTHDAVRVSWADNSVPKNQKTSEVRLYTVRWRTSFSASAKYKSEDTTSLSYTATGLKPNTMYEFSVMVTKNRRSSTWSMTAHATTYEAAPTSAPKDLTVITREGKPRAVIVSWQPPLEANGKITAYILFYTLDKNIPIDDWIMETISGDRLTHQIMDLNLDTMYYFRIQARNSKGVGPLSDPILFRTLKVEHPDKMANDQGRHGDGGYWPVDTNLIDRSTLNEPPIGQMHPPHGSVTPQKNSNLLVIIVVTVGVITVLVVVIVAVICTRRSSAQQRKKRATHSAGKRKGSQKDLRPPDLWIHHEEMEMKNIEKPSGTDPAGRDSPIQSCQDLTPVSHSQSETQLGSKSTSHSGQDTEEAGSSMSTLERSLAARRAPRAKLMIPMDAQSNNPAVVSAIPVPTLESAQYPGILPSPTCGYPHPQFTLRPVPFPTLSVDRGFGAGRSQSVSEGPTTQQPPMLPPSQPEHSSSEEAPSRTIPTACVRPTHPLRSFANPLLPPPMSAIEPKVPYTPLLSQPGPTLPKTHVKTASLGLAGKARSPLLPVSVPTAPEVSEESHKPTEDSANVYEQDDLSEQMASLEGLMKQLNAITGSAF

[2] = target: T2, FCGR2B (human, UniProt P31994); experiment: as above
T2 construct: overexpressed on live cells from an expression plasmid; Tested in the validation titration of the membrane protein array
T2 sequence (membrane protein, looked up): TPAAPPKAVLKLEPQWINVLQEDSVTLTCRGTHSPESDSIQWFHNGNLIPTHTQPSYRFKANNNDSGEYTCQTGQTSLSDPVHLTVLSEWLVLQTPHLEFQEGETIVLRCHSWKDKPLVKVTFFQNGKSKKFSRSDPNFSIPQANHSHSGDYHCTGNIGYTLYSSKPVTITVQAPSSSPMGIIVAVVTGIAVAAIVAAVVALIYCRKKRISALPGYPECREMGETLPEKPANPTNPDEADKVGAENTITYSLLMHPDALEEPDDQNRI

[3] = target: T3, MCAM (human, UniProt P43121 24-646); experiment: as above
T3 construct: whole, on cells; also called MUC18; cell surface glycoprotein MUC18

[4] = target: T4, DSC1; experiment: as above
T4 construct: Tested in the validation titration of the membrane protein array
T4 chain: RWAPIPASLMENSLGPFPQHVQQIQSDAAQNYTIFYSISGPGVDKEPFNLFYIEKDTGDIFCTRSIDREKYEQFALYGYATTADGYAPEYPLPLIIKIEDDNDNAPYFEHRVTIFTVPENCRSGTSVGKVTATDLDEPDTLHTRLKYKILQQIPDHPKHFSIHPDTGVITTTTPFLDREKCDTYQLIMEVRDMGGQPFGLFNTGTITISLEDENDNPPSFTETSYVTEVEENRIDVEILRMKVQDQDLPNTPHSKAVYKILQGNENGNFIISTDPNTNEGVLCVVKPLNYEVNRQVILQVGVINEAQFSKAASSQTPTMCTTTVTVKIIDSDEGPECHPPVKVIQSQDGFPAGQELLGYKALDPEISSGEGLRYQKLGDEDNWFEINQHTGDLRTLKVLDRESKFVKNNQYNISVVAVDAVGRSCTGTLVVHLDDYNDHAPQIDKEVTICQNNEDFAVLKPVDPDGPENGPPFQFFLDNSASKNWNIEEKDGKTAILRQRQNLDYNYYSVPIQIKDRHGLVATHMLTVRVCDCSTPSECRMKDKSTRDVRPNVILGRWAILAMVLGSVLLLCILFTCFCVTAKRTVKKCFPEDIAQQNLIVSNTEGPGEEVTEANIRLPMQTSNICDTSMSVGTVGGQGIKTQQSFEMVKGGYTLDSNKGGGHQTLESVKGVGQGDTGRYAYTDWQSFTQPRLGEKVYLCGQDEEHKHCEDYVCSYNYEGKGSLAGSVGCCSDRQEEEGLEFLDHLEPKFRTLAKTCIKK

[5] = target: T5, cynomolgus CX3CR1 (cynomolgus monkey (Macaca fascicularis), UniProt P49238 1-355 (human entry)); experiment: MSD-SET in-solution affinity on cell expressed cyno CX3CR1, 30 uM HSA, geometric mean of N = 3
T5 construct: Overexpressed on CHO K1 cells; also called cyno CX3CR1; cyCX3CR1
T5 chain: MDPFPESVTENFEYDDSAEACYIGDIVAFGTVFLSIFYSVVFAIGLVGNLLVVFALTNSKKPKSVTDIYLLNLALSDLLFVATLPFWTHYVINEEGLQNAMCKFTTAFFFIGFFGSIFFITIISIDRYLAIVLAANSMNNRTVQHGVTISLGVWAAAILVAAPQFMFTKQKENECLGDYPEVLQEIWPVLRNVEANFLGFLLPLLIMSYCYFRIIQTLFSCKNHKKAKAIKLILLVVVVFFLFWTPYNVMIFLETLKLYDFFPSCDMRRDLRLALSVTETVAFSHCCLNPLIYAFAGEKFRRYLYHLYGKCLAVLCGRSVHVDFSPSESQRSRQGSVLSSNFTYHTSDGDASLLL
Description: The affinity was determined on 3 independent assay occasions.

[6] = target: T5, cynomolgus CX3CR1; experiment: flow cytometry on CHO K1 cells; tied to A041600085 by Table B-4 (5.6E-10 against 1.7E-10)
Description: CHO cells overexpressing human or cynomolgus CX3CR1 were generated using techniques known in the art. Cells were harvested and resuspended in assay buffer (PBS, 2% FBS, 0.05% NaN3) and seeded separately in 384-well Bio-One V-bottom plates (Greiner, Cat. No. 781280), with a total of 2E04 cells seeded per well. After washing, serial dilutions of multivalent ISVD construct (starting from 250 nM, 3-fold dilution, 11 points, diluted in assay buffer), were added and incubated for 4 hours at 4° C. Binding was performed in the presence of 30 uM HSA (Sigma-Aldrich, Cat. No. A8763). Plates were then washed 3 times and cells were incubated with an anti-VHH mouse antibody (3300-fold diluted in assay buffer) for 30 minutes at 4′° C. […] Plates were finally washed 3 times and cells were resuspended in PI (Miltenyi Biotec, Cat. No. 130-093-233, 1000-fold diluted in assay buffer). Cell suspensions were analyzed with iQue Screener PLUS (Intellicyt). EC50s were estimated by dose response modelling. Curves were fit using 4 parameter logistic regression in GraphPad (GraphPad Software Inc.). A purified anti-human CX3CR1 antibody [K0124E1] (BioLegend, Cat. No. 355701/355702) was used as positive control to detect CX3CR1 expression on the cell surface.

binding result [1]: no binding (tested: 20 ug/ml)
binding result [2]: no binding (tested: 20 ug/ml)
binding result [3]: no binding (tested: 20 ug/ml)
binding result [4]: no binding (tested: 20 ug/ml)
Kd [5]: 0.11 nM
B1: A041600035 (VHH)
chain: DVQLVESGGGSVQPGGSLRLSCAASGSIFSSTAMAWYRQAPGKQRDLVAVISTVGITKYADSVKGRFTISRDNAKNTVYLQMNSLRPEDTALYYCTSDARRGWDTRYWGQGTLVTVSSGGGGSGGGSEVQLVESGGGSVQPGGSLRLSCAASGSIFSSTAMAWYRQAPGKQRDLVAVISTVGITKYADSVKGRFTISRDNAKNTVYLQMNSLRPEDTALYYCTSDARRGWDTRYWGQGTLVTVSSGGGGSGGGSEVQLVESGGGVVQPGGSLRLSCAASGFTFRSFGMSWVRQAPGKGPEWVSSISGSGSDTLYADSVKGRFTISRDNSKNTLYLQMNSLRPEDTALYYCTIGGSLSRSSQGTLVTVSSA
notes: Trivalent ISVD construct (two anti-CX3CR1 ISVDs, one anti-albumin ISVD), C-terminal alanine included in the entry; also called 54A12_SO (E1D)-9GS-54A12_SO-9GS-ALB23002-A

fold difference in EC50 (cyno CX3CR1 against human CX3CR1) [6]: 3.3 fold
B2: A041600085 (VHH)
chain: DVQLVESGGGLVQPGGSLRLSCAASGSIFSSTAMAWYRQAPGKRRDLVAAISTVGVTKYADSVKGRFTISRDNSKNTVYLQMNSLRPEDTAVYYCTSDPRRGWDTRYWGQGTLVTVSSGGGGSGGGSEVQLVESGGGVVQPGGSLRLSCAASGFTFRSFGMSWVRQAPGKGPEWVSSISGSGSDTLYADSVKGRFTISRDNSKNTLYLQMNSLRPEDTALYYCTIGGSLSRSSQGTLVTVSSGGGGSGGGSEVQLVESGGGLVQPGGSLRLSCAASGSIFSSTAMAWYRQAPGKRRDLVAAISTVGVTKYADSVKGRFTISRDNSKNTVYLQMNSLRPEDTAVYYCTSDPRRGWDTRYWGQGTLVTVSSA
notes: also called 307-9GS-ALB23002-9GS-307 (D1E)-A
